This assay addresses human CD19 (human) (UniProt P15391). Nature of the assay: cell-based or functional assay.

human CD19 (human), sequence (P15391 20-556): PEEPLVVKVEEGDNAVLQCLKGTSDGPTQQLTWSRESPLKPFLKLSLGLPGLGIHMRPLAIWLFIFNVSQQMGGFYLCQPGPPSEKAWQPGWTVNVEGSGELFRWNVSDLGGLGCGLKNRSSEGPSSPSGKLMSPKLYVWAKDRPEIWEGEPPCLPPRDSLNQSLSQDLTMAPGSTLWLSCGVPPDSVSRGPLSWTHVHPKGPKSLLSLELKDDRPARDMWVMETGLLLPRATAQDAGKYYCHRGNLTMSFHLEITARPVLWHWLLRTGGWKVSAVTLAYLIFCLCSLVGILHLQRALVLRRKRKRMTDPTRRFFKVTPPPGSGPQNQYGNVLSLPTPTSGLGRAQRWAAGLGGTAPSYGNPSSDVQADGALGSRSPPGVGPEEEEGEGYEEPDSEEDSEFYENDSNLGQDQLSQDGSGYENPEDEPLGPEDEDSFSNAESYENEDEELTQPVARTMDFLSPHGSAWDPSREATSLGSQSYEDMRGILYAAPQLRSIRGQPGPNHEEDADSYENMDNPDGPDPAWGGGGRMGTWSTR

Substance CD8SP-CD19BU12(vL-vH)-MYC-BBz-PAC displayed an NFAT-GFP (%) after overnight co-culture with RAJI cells of 30.2%.

For the origin of these results see patent US20260167693A1.
